In US20080206254A1 (LIFE SCIENCES RESEARCH PARTNERS VZW, published 2008):
Residue numbers refer to the chain shown, from its start.

Columns and labels:
[1] = molecular target: T1, A2 domain residues 379-546 of FVIII with mutation Y487A (human, UniProt P00451 398-565, 35S-methionine labelled); test: immunoprecipitation of 35S-labelled polypeptide on BOIIB2-Protein A Sepharose
T1 construct: Read as one of four single mutants; see the note of m4; not shown: cmyc (9E10) tag
T1 sequence: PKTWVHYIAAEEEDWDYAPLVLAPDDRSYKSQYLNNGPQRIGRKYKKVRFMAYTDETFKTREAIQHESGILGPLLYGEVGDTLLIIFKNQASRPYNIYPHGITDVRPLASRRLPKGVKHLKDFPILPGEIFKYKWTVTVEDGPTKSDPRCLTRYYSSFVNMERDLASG
Method: (§1) For fragments of FVIII of less than 15 amino acids a tag sequence was added including ubiquitin and/or T7 for recognition by specific anti-tag antibodies, together with a complementary sequence of cysteines for S labeling. Polypeptide encoding FVIII fragments were produced in TNT coupled Reticulocyte Lysate Systems (Promega) according to manufacturer's instructions. Immunoprecipitation of transcribed genes was carried out as follows. Dilutions of samples containing specific antibodies were mixed to 40 μl of protein A Sepharose (Pharmacia) in 500 μl of an appropriate buffer and the mixture gently rocked for 1 hour at 4° C. Unbound antibodies are eliminated by a series of centrifugation and washings. The complex of antibody-protein A Sepharose is resuspended in 300 μl of buffer supplemented by 3 μl of in-vitro L-(³⁵S) methionine-labeled FVIII polypeptides for an incubation at 4° C. for 2 hours. Bound antigen/antibody complexes are eluted from the beads by boiling for 3 minutes in 30 μl of denaturing sample buffer and the radioactivity counted. A second aliquot is analyzed by SDS-PAGE and visualized by autoradiography. […] This system includes a combined transcription-translation provided by rabbit reticulocytes. […] Polypeptides are radiolabeled by addition of ³⁵S-methionine in the reaction mixture. BOIIB2 antibody is incubated with a Protein-A Sepharose, washed and resuspended before addition of one of the radiolabeled polypeptides. The suspension is incubated for 90 minutes at room temperature, washed and the labeled polypeptide eluted from Sepharose beads by addition of a sodium-dodecylsulfate containing buffer.

[2] = molecular target: T2, A2 domain residues 379-546 of FVIII with mutation R489A (human, UniProt P00451 398-565, 35S-methionine labelled); test: as above
T2 construct: Read as one of four single mutants; see the note of m4; not shown: cmyc (9E10) tag
T2 sequence: T1 sequence with A109Y, R111A
Method: as §1

[3] = molecular target: T3, A2 domain residues 379-546 of FVIII with mutation R484A (human, UniProt P00451 398-565, 35S-methionine labelled); test: as above
T3 construct: the text lists R484A; Y487A; not shown: cmyc (9E10) tag
T3 sequence: T1 sequence with R106A, A109Y
Method: as §1

[4] = molecular target: T4, A2 domain residues 379-546 of FVIII with mutation P492A (human, UniProt P00451 398-565, 35S-methionine labelled); test: as above
T4 construct: Read as one of four single mutants; see the note of m4; not shown: cmyc (9E10) tag
T4 sequence: T1 sequence with A109Y, P114A
Method: as §1

[5] = molecular target: human Factor VIII (FVIII) (human) (UniProt P00451); test: SPR (BIAcore), BOIIB2 immobilised on a CM5 chip, FVIII in HBS as analyte
[6] = molecular target: human Factor VIII (FVIII) (human) (UniProt P00451); test: cell-based or functional assay

Sequence of human Factor VIII (FVIII) (human) (P00451 20-2351): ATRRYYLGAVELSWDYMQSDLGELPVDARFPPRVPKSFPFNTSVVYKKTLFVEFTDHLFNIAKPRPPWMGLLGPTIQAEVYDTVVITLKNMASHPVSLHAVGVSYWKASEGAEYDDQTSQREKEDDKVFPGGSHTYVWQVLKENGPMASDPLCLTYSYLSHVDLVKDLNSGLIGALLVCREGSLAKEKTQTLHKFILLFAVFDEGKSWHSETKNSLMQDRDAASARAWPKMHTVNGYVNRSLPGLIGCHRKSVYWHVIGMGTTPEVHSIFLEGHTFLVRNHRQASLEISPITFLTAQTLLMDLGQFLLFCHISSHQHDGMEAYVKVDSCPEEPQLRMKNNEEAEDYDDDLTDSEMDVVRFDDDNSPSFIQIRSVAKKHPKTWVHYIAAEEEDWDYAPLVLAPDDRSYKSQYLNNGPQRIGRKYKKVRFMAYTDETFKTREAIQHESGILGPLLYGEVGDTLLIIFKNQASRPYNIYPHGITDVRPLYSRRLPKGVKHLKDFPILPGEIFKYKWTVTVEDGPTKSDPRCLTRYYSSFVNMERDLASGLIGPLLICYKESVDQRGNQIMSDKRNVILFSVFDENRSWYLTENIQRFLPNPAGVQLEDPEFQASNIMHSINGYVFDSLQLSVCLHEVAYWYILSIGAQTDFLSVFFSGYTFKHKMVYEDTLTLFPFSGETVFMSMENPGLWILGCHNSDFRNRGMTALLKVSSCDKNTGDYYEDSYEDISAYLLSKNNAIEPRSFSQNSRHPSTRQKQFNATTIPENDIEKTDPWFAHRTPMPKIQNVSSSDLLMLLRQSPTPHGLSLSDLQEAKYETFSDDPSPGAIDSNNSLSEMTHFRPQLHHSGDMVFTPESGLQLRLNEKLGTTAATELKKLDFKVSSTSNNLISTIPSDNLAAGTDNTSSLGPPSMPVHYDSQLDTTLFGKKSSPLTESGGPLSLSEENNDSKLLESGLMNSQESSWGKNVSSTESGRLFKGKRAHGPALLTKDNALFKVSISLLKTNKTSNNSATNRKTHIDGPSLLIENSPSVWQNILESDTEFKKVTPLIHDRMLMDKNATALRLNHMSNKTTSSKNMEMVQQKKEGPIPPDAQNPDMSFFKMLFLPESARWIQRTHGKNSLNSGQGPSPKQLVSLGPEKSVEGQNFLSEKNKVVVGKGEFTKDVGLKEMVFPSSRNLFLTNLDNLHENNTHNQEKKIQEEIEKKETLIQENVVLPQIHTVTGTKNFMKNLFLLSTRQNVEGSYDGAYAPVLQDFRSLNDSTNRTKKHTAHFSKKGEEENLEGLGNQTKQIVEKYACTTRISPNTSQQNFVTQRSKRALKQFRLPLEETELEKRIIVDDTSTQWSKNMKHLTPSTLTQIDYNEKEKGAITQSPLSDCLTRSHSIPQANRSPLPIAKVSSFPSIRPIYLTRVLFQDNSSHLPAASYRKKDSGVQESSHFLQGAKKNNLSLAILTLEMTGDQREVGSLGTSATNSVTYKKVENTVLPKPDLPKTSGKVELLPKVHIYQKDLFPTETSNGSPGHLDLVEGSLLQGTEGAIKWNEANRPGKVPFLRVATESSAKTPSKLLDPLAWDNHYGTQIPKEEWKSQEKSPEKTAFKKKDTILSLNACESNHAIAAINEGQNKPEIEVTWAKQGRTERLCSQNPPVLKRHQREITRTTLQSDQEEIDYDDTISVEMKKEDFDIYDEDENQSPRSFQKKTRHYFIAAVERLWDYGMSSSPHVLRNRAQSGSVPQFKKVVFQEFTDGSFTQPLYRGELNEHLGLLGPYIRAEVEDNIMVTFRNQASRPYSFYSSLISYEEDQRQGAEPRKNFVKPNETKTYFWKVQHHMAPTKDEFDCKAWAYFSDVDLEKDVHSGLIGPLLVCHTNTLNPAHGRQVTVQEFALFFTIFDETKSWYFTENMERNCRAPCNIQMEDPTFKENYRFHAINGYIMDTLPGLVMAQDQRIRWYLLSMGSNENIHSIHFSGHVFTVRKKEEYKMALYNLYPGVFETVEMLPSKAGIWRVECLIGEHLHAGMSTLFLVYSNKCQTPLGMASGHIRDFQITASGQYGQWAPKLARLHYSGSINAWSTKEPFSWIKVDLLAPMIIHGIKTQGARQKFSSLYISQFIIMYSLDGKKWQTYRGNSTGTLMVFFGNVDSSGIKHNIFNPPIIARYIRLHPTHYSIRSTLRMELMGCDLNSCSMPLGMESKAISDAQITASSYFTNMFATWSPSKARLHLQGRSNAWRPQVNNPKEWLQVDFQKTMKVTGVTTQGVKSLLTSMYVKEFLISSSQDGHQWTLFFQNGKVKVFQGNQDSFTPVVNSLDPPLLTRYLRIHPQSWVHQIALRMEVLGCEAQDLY

B1: human monoclonal antibody BOIIB2, produced by the cell line deposited under accession number LMBP 6422CB at the BCCM (antibody, V domains shown)
VH: QVQLQESGPGLVKPSETLSLTCTVSGDSISDYYWSWIRQPPGKGLEWIGYFFYSGGSNYNPSLKSRVTMSVDTSKNQFSLKLGSVTAADTAVYYCARSQLRYYLDVWGQGTTVTVSS
VL: EIVLTQSPGTLSLSPGERATLSCRASQSVDSNYLAWYQQKPGQAPRVVIYGASNRATGIPDRFSGSGSGTEFTLTISRLDPEDFAVYYCQQYGSFFGQGTRLEIK
notes: VH4 (DP-71)/JH6c, VkappaIII/Jkappa5; also called BIIIB2
- binding result [1]: no binding
- binding result [2]: no binding
- binding result [3]: no binding
- binding result [4]: no binding
- koff [5]: 1e-08 s⁻¹
- Percentage of inhibition of FVIII in a chromogenic assay (thrombin-activated FVIII as cofactor of factor IXa in the conversion of factor X to factor Xa) [6]: 99%
